Results published in publication PMC2830092.

Molecular target: FLAG-Pen-2 (human) (UniProt Q9NZ42)
Assay: STEM mass measurement

Chain of UniProt Q9NZ42 (Q9NZ42 whole entry): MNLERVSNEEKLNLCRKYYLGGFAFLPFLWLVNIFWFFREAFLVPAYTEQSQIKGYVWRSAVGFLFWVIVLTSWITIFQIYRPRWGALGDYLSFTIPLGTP

Substance: Aph1α2-HA (from UniProt Q96BI3 1-265) (natural protein)
- stoichiometry N: 1
